How the values were obtained:
[1] = molecular target: DNase I (Sigma, St. Louis, Mo.); experiment: cell-based or functional assay
[2] = molecular target: α-actin purified from rabbit skeletal muscle, globular (G-actin) form (UniProt P68135)

Row | DNase I digestion of plasmid DNA (agarose gel): level of inhibition against diluted intact actin [1] [fold] | DNase I digestion of plasmid DNA (agarose gel): reduction in DNase I inhibition [1] [%] | Substance | DNase I digestion of plasmid DNA (agarose gel) [2]
1 | 5 | 80 | actin cleaved for 90 minutes by ICE | –
2 | – | – | DNase I (Sigma, St. Louis, Mo.) | preincubation of DNase I with intact actin (1.5 µg) for 5 minutes markedly reduced its ability to digest the plasmid

Reference: patent US6649364
